Results from PMC11542851.

How the values were obtained:
[1] = target: clade 1b RBDs (SARS-CoV-2-related sarbecoviruses), yeast-displayed; assay: flow cytometry on cells
[2] = target: clade 1a RBDs (SARS-CoV-1-related sarbecoviruses), yeast-displayed; assay: flow cytometry on cells

B1: C68.61 (antibody, V domains shown)
VH: EVQLVQSGAEVKKPGESLKISCKGSAYIFTRYWIGWVRQMPGKGLEWMGIIYPGDSDTRYSPSFQGQVTISADKSISTAYLQWSSLKASDTAMYYCARSGTTNYFDYWGQGTLVTVSS
VL: DIQLTQSPSTLSASVGDRVTITCRASQSISSWLAWYQQKPGKAPKLLIYDASSLDSGVPSRFSGSGSGTDFTLTISSLQPDDFATYYCQQFNSYWTFGQGTKVEIK
Binder B1 has a geomean EC50 across the clade [1] of 0.25 ng/mL and a geomean EC50 across the clade [2] of 1.9 ng/mL.
